Blank lines part the entries; values can stand above or below the compound they belong to.
Experiments:
[1] = molecular target: Hydra vulgaris K+-Cl- cotransporter (HvKCC) (Hydra vulgaris); assay: SEC-MALS; SEC-MALLS; protein at 1.0 mg/mL on Superdex 200 10/300 in 20 mM HEPES pH 7.4, 150 mM NaCl, 50 mM KCl, 0.015% DDM, 0.003% CHS, 5% glycerol; protein conjugate analysis (ASTRA 6); single measurement
[2] = molecular target: T1, DmKCC (Drosophila melanogaster, UniProt Q7KVH5); assay: K+ influx into proteoliposomes, fluorescent K+ probe (ION Potassium Green-2 TMA+); format: biochemical
T1 construct: gene kcc; full-length cDNA, N-terminal 8xHis and FLAG tags (no cleavage stated), Sf9 baculovirus expression, DDM/CHS Ni-NTA purified, reconstituted in azolectin proteoliposomes
T1 sequence (Q7KVH5 1-1028): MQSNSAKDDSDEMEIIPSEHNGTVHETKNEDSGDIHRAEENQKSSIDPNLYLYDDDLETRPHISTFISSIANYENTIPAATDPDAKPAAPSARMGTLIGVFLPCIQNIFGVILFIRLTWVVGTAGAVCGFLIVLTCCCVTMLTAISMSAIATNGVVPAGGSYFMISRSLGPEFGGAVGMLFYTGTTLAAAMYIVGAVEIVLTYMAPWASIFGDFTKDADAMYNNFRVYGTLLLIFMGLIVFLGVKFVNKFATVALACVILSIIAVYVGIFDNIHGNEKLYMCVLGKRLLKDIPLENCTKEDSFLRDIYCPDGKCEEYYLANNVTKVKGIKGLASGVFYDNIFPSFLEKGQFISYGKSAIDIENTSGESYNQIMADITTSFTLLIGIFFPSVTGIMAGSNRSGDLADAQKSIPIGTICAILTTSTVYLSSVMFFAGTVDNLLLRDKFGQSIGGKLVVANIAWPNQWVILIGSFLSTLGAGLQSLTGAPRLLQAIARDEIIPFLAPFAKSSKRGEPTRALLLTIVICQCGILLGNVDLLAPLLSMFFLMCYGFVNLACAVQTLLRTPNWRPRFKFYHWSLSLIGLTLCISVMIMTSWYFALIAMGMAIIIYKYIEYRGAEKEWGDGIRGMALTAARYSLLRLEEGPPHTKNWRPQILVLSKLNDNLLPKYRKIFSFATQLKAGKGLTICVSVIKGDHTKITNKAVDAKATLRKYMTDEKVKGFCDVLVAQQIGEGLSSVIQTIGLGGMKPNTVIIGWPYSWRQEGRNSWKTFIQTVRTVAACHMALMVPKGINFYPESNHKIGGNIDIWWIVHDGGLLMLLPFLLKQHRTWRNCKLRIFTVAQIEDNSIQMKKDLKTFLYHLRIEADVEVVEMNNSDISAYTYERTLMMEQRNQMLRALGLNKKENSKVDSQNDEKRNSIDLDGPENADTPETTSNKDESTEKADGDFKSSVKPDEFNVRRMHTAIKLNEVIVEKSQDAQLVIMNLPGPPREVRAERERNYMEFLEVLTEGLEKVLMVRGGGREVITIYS

[3] = molecular target: Drosophila melanogaster K+-Cl- cotransporter (DmKCC) variant B (Drosophila melanogaster); assay: SEC; Superdex 200 10/300 gel filtration in 20 mM HEPES pH 7.4, 150 mM NaCl, 50 mM KCl, 0.015% DDM, 0.003% CHS, 5% glycerol; elution profile compared with that of HvKCC, whose dimer was verified by SEC-MALLS

stoichiometry N [1]: 2
Compound: Hydra vulgaris K+-Cl- cotransporter (HvKCC) (natural protein)

Compound: O=S(=O)(O)c1cc(N=C=S)ccc1C=Cc1ccc(N=C=S)cc1S(=O)(=O)O [DIDS, 4,4′‐diisothiocyano‐2,2′‐stilbenedisulfonic acid]
IC50 [2]: 25 nM

stoichiometry N [3]: 2
Compound: Drosophila melanogaster K+-Cl- cotransporter (DmKCC) variant B (natural protein)

Source: PMC12401179, “Biophysical characterization and ion transport with cell‐based and proteoliposome reconstitution assays of invertebrate K^+‐Cl^− cotransporters” (FEBS Open Bio, 2025)
